Consider 1 molecule from paper PMC5555194.

For the assay, the target named is C3d (human), P01024. The assay is described as follows: SPR; C3d amine-coupled to a different flow cell of the same C1 chip; CFH (from 2.5 to 0.019 uM), or 0.6 uM CFH premixed with 1.2 uM PspCN, flowed over; equilibrium plots. The settings on record: remark: other sources report otherwise.
Chain of C3d (human), P01024 (P01024 1002-1303): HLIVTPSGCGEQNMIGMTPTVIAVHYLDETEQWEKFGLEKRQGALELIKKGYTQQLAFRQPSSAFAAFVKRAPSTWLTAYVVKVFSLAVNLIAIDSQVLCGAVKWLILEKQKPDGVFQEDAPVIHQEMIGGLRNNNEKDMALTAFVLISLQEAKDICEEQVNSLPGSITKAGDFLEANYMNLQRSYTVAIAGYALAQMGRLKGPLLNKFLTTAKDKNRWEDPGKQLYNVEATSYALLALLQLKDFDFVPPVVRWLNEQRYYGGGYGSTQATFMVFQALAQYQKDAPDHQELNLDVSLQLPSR

B1: V62-CFH (recombinant human complement factor H, variant Val-62, Tyr-402, Glu-936), P08603 19-1231 (natural protein)
chain: EDCNELPPRRNTEILTGSWSDQTYPEGTQAIYKCRPGYRSLGNVIMVCRKGEWVALNPLRKCQKRPCGHPGDTPFGTFTLTGGNVFEYGVKAVYTCNEGYQLLGEINYRECDTDGWTNDIPICEVVKCLPVTAPENGKIVSSAMEPDREYHFGQAVRFVCNSGYKIEGDEEMHCSDDGFWSKEKPKCVEISCKSPDVINGSPISQKIIYKENERFQYKCNMGYEYSERGDAVCTESGWRPLPSCEEKSCDNPYIPNGDYSPLRIKHRTGDEITYQCRNGFYPATRGNTAKCTSTGWIPAPRCTLKPCDYPDIKHGGLYHENMRRPYFPVAVGKYYSYYCDEHFETPSGSYWDHIHCTQDGWSPAVPCLRKCYFPYLENGYNQNYGRKFVQGKSIDVACHPGYALPKAQTTVTCMENGWSPTPRCIRVKTCSKSSIDIENGFISESQYTYALKEKAKYQCKLGYVTADGETSGSITCGKDGWSAQPTCIKSCDIPVFMNARTKNDFTWFKLNDTLDYECHDGYESNTGSTTGSIVCGYNGWSDLPICYERECELPKIDVHLVPDRKKDQYKVGEVLKFSCKPGFTIVGPNSVQCYHFGLSPDLPICKEQVQSCGPPPELLNGNVKEKTKEEYGHSEVVEYYCNPRFLMKGPNKIQCVDGEWTTLPVCIVEESTCGDIPELEHGWAQLSSPPYYYGDSVEFNCSESFTMIGHRSITCIHGVWTQLPQCVAIDKLKKCKSSNLIILEEHLKNKKEFDHNSNIRYRCRGKEGWIHTVCINGRWDPEVNCSMAQIQLCPPPPQIPNSHNMTTTLNYRDGEKVSVLCQENYLIQEGEEITCKDGRWQSIPLCVEKIPCSQPPQIEHGTINSSRSSQESYAHGTKLSYTCEGGFRISEENETTCYMGKWSSPPQCEGLPCKSPPEISHGVVAHMSDSYQYGEEVTYKCFEGFGIDGPAIAKCLGEKWSHPPSCIKTDCLSLPSFENAIPMGEKKDVYKAGEQVTYTCATYYKMDGASNVTCINSRWTGRPTCRDTSCVNPPTVQNAYIVSRQMSKYPSGERVRYQCRSPYEMFGDEEVMCLNGNWTEPPQCKDSTGKCGPPPPIDNGDITSFPLSVYAPASSVEYQCQNLYQLEGNKRITCRNGQWSEPPKCLHPCVISREIMENYNIALRWTAKQKLYSRTGESVEFVCKRGYRLSSRSHTLRTTCWDGKLEYPTCAKR
modifications: here or on the partner: N-glycans trimmed to the first GlcNAc residues (EndoHf)
In turn, B1 returned an equilibrium dissociation constant (Kd) of 2100 nM.
